Assay [1] addresses T1, rHuman IGF-1 sR (insulin-like growth factor-1 soluble receptor), CF (R&D Systems Cat#391-GR) (human, UniProt P08069 31-932).
T1 construct: Bought soluble receptor; also called IGF-R1
As to the kind of experiment: ECL (MSD multi-spot), antigen on plate, Fab 50 nM.

Assay [2] has as its target T2, rHuman Erythropoietin R/Fc Chimera, CF (R&D Systems Cat#963-ER) (human, UniProt P19235 25-250).
T2 construct: Bought Fc chimera; also called EPO R/Fc; Epo R; not shown: Fc of the bought chimera
T2 sequence: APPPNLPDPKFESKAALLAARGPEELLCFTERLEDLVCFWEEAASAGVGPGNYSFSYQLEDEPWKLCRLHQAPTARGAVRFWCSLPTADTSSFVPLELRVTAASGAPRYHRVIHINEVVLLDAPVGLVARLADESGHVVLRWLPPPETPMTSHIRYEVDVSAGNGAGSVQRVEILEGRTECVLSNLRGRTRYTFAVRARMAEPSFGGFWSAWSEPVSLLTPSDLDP
Description: ECL (MSD multi-spot), antigen on plate, Fab 50 nM.

Assay [3] concerns the target T3, Recombinant Human DLL4 (R&D Systems Cat#1506-D4/CF) (human, UniProt Q9NR61 27-524).
T3 construct: Bought recombinant protein; also called delta-like protein 4
Description: ECL (MSD multi-spot), antigen on plate, Fab 50 nM.

Assay [4] concerns the target T4, rHuman Notch-1/Fc Chimera, CF (R&D Systems Cat#3647-TK) (human, UniProt P46531 19-526).
T4 construct: Bought Fc chimera; not shown: Fc of the bought chimera
Description: ECL (MSD multi-spot), antigen on plate, Fab 50 nM.

Assay [5] addresses T5, rHuman IGF-1 sR, (IGF-1 sR), CF (R&D Systems Cat#391-GR) (human, UniProt P08069 31-932).
T5 construct: also called insulin-like growth factor-1 soluble receptor; IGF-R1
As to the kind of experiment: MSD ECL multi-spot plate; Fab 2.0 nM; blank spot 316.

Assay [6] concerns the target T6, rHuman Erythropoietin R/Fc Chimera, CF (R&D Systems Cat#963-ER) (human, UniProt P19235 25-250).
T6 construct: also called EPO R/Fc; Epo R; Fc part of the bought chimera not given
T6 sequence: T2 sequence
The assay is described as above.

Assay [7] has as its target T7, Recombinant Human DLL4 (R&D Systems Cat#1506-D4/CF) (human, UniProt Q9NR61 27-524).
T7 construct: also called delta-like protein 4
Described as above.

Assay [8] deals with T8, rHuman ErbB2/Fc Chimera, CF (R&D Systems Cat#1129-ER) (human, UniProt P04626 23-652).
T8 construct: also called HER2/neu; human epidermal growth factor 2 receptor; Fc part of the bought chimera not given
The assay is described as above.

In assay [9] the target is T9, rHuman EGF R/Fc Chimera, CF (R&D Systems Cat#344-ER) (human, UniProt P00533 25-645).
T9 construct: also called epidermal growth factor receptor; Fc part of the bought chimera not given
The description is as above.

Assay [10] concerns the target T10, rHuman HGF R/c-MET/Fc Chimera, CF (R&D Systems Cat#358-MT/CF) (human, UniProt P08581 25-932).
T10 construct: also called HGF R/Fc; hepatocyte growth factor receptor; Fc part of the bought chimera not given
Described as above.

Assay [11] deals with T11, rHuman Notch-1/Fc Chimera, CF (R&D Systems Cat#3647-TK) (human, UniProt P46531 19-526).
T11 construct: Fc part of the bought chimera not given
Described as above.

In assay [12] the target is T12, rHuman CD44/Fc Chimera, CF (R&D Systems Cat#3660-CD) (human, UniProt P16070 21-220).
T12 construct: Fc part of the bought chimera not given
Described as above.

The target in assay [13] is T13, rHuman Erythropoietin R/Fc Chimera, CF (R&D Systems Cat#963-ER) (human, UniProt P19235 25-250).
T13 construct: Purchased Fc chimera; also called EPO R/Fc; Epo R; not shown: Fc portion of the purchased chimera
T13 sequence: T2 sequence
Description: MSD ECL multi-spot plate, antigen immobilized; Fab 40 nM; blank spot 518.

In assay [14] the target is T14, Recombinant Human DLL4 (R&D Systems Cat#1506-D4/CF) (human, UniProt Q9NR61 27-524).
T14 construct: Purchased recombinant protein; also called delta-like protein 4
The description is as above.

The target of assay [15] is T15, rHuman ErbB2/Fc Chimera, CF (R&D Systems Cat#1129-ER) (human, UniProt P04626 23-652).
T15 construct: Purchased Fc chimera; also called HER2/neu; not shown: Fc portion of the purchased chimera
Described as above.

Assay [16] has as its target T16, rHuman EGF R/Fc Chimera, CF (R&D Systems Cat#344-ER) (human, UniProt P00533 25-645).
T16 construct: Purchased Fc chimera; not shown: Fc portion of the purchased chimera
Described as above.

For assay [17], the target named is T17, rHuman HGF R/c-MET/Fc Chimera, CF (R&D Systems Cat#358-MT/CF) (human, UniProt P08581 25-932).
T17 construct: Purchased Fc chimera; also called HGF R/Fc; not shown: Fc portion of the purchased chimera
The description is as above.

In assay [18] the target is T18, rHuman Notch-1/Fc Chimera, CF (R&D Systems Cat#3647-TK) (human, UniProt P46531 19-526).
T18 construct: Purchased Fc chimera; not shown: Fc portion of the purchased chimera
Described as above.

For assay [19], the target named is T19, rHuman CD44/Fc Chimera, CF (R&D Systems Cat#3660-CD) (human, UniProt P16070 21-220).
T19 construct: Purchased Fc chimera; not shown: Fc portion of the purchased chimera
The description is as above.
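Further: blank spot per well as comparator with Hit at signal to blank ratio of 4 or more.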

B1: Fab VH1-46_IGHD6-6*01_IGHJ1*01_S102A_S103P_S104F & L6_IGKJ1*01_S31K (Fab, V domains shown)
VH: QVQLVQSGAEVKKPGASVKVSCKASGYTFTSYYMHWVRQAPGQGLEWMGIINPSGGSTSYAQKFQGRVTMTRDTSTSTVYMELSSLRSEDTAVYYCAREEYAPFSAEYFQHWGQGTLVTVSS
VL: EIVLTQSPATLSLSPGERATLSCRASQSVSKYLAWYQQKPGQAPRLLIYDASNRATGIPARFSGSGSGTDFTLTISSLEPEDFAVYYCQQRSNWPPWTFGQGTKVEIKR
notes: Fab
Turning to B1, the ECL signal in [1] stood at 257 ECL signal; in assay [2] it was 574 ECL signal; in [3], 35300 ECL signal; in [4], 355 ECL signal.

B2: Fab VH1-8_IGHD2-2*01_IGHJ6*01 & L12_IGKJ1*01 (Fab, V domains shown)
VH: QVQLVQSGAEVKKPGASVKVSCKASGYTFTSYDINWVRQATGQGLEWMGWMNPNSGNTGYAQKFQGRVTMTRNTSISTAYMELSSLRSEDTAVYYCARGGYCSSTSCYADYYYYYGMDVWGQGTTVTVSS
VL: not shown
Regarding B2, the ECL signal was 367 ECL signal in assay [5]; 433 ECL signal in assay [6]; 605 ECL signal in assay [7]; 382 ECL signal in assay [8]; 424 ECL signal in assay [9]; 356 ECL signal in [10]. Also, the ECL signal in [11] worked out at 539 ECL signal; in [12], 447 ECL signal.

B3: Fab VH5-51_IGHD5-18*01>3_IGHJ4*01_G100K & V3-4_IGLJ1*01 (Fab, V domains shown)
VH: EVQLVQSGAEVKKPGESLKISCKGSGYSFTSYWIGWVRQMPGKGLEWMGIIYPGDSDTRYSPSFQGQVTISADKSISTAYLQWSSLKASDTAMYYCARRKYSYGYDYFDYWGQGTLVTVSS
VL: QTVVTQEPSFSVSPGGTVTLTCGLSSGSVSTSYYPSWYQQTPGQAPRTLIYSTNTRSSGVPDRFSGSILGNKAALTITGAQADDESDYYCVLYMGSGISYVFGTGTKVTVL
notes: It was expressed as a Fab: CH1 with tags from Plasmid A and lambda CL from Plasmid E; also called Fab No. 22
In the case of B3, the ECL signal in assay [13] worked out at 979 ECL signal; in assay [14], 35900 ECL signal; in [15], 1390 ECL signal; in assay [16], 1150 ECL signal; in assay [17], 1310 ECL signal; in assay [18], 875 ECL signal. The molecule also showed an ECL signal in assay [19] of 857 ECL signal.
